For the experiment, the target named is Mlph-ABD labelled with ATTO 488 NHS Ester dye (mouse) (UniProt Q91V27). Kind of experiment: MST.

1 substance from doi:10.1101/2023.11.01.565146 can be followed below.

Sequence of UniProt Q91V27 (Q91V27 401-590): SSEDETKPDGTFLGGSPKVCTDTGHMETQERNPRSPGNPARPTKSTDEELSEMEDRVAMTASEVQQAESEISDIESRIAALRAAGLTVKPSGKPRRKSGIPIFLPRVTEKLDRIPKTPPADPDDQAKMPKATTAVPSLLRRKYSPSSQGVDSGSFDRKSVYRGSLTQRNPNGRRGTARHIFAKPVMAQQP

Substance “Flag-Myo5a-MTD (residues 1106-1467), bacterial-expressed (domain or fragment)” returned a Kd of 562 nM. This counts as sub-micromolar.

In general, Kd refers to the equilibrium constant for the complex coming apart.
